In PMC7939549, “LAP2alpha maintains a mobile and low assembly state of A-type lamins in the nuclear interior” (eLife, 2021):

Target: T1, lamin A/C (endogenous, mEos3.2-lamin A/C WT mouse dermal fibroblasts) (mouse (endogenous in mouse dermal …, UniProt P48678 1-647))
T1 construct: lamins A and C, both products of the mouse Lmna gene, precipitated together by lamin A/C antibodies; WT clone #21 expresses mEos3.2-tagged lamin A/C (mEos3.2 in frame before the first codon, N-terminal) from 1 allele and untagged lamin A/C from 3 alleles; the precipitated pool holds tagged and untagged lamins A and C; also called lamins A and C; A-type lamins; source: endogenous, mEos3.2-Lmna WT …
T1 sequence (looked up): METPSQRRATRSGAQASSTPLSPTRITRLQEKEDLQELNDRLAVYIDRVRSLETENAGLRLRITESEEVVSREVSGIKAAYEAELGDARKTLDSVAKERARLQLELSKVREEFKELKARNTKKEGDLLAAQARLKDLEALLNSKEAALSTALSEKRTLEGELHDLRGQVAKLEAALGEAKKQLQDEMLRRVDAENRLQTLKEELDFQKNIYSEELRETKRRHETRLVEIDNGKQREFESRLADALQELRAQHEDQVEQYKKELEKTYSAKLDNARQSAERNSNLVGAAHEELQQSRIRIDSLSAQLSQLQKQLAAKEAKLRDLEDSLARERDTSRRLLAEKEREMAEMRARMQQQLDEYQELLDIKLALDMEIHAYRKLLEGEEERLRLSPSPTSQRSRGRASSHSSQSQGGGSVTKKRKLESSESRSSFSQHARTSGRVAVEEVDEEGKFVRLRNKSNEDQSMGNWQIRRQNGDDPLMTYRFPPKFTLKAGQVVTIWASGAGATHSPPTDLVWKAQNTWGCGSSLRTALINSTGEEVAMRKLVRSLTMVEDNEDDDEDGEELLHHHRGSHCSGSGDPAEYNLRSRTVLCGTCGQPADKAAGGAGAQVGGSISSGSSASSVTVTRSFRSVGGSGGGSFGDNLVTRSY
Test: not stated; our unpublished data; ratio of mEos3.2-lamin A and LAP2α in the complex

stoichiometry N: 1
B1: LAP2α (endogenous, mouse dermal fibroblasts) (natural protein, UniProt Q61033 1-693, looked up)
chain: MPEFLEDPSVLTKDKLKSELVANNVTLPAGEQRKDVYVQLYLQHLTARNRPPLAAGANSKGPPDFSSDEEREPTPVLGSGASVGRGRGAVGRKATKKTDKPRLEDKDDLDVTELSNEELLDQLVRYGVNPGPIVGTTRKLYEKKLLKLREQGTESRSSTPLPTVSSSAENTRQNGSNDSDRYSDNDEGKKKEHKKVKSARDCVPFSELASTPSGAFFQGISFPEISTRPPLGRTELQAAKKVQTTKRDPPRETCTDTALPGKGQTHKLAPGRSLFIPSESSYDRCVEKSSSPSSQREFAARLVSAAASPSLIRETTTTYSKDIVENICRGGKSRAQPLRAEEPGVSDQSVFSSEREVLQESERSQVISPPLAQAIRDYVNSLLVQGGVGSLPGTSDSVPTLDVENICKRLSQSSYQDSESLSPPRKVPRLSEKPARGGDSGSCVAFQNTPGSEHRSSFAKSVVSHSLTTLGVEVSKPPPQHDKIEASEPSFPLHESILKVVEEEWQQIDRQLPSVACRYPVSSIEAARILSVPKVDDEILGFISEATPRAATQASSTESCDKHLDLALCRSYEAAASALQIAAHTAFVAKSLQADISQAAQIINSDPSDAQQALRILNRTYDAASYLCDAAFDEVRMSACAMGSSTMGRRYLWLKDCKISPASKNKLTVAPFKGGTLFGGEVHKVIKKRGNKQ
notes: lamin-associated polypeptide 2 alpha (LAP2α), mouse, endogenous, detected with antibody 1H11; also called lamin-associated polypeptide 2 alpha; source: endogenous, mEos3.2-Lmna WT mouse dermal fibroblasts, soluble cell extract
